Assay results as given in article doi:10.1101/2025.10.15.682582, “A recombinant norrin-derived growth factor retains the complete multifunctionality of human norrin” (bioRxiv, 2025).

Molecular target: T1, rhFrizzled-4/FC Chimera (human, UniProt Q9ULV1 37-212)
T1 sequence (looked up): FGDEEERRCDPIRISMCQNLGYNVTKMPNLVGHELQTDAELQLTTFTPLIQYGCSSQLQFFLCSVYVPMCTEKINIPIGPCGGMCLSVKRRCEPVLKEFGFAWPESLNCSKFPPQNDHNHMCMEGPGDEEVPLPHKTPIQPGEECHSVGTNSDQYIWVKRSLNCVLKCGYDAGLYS
Assay: cell-based or functional assay

TCF/LEF firefly luciferase reporter in HEK-293 cells transfected with FZD4 and LRP5; average EC50 of 3 assays with human norrin: 0.036 µg/mL
B1: human recombinant norrin (ligand, UniProt Q00604 25-133, looked up)
chain: KTDSSFIMDSDPRRCMRHHYVDSISHPLYKCSSKMVLLARCEGHCSQASRSEPLVSFSTVLKQPFRSSCHCCRPQTSKLKALRLRCSGGMRLTATYRYILSCHCEECNS
